According to patent publication US20260201033A1 (LTZ THERAPEUTICS, published 2026):
One block for each binder: values may come before it.

Legend:
[1] = biological target: T1, Human CLEC5A His Tag protein (ACROBiosystems, Cat #: CLA-H5243) (human, UniProt Q9NY25 28-188, limits assumed); assay: ELISA, plate coated with human CLEC5A
T1 construct: Bought protein with a His tag; also called recombinant human CLEC5A protein
T1 sequence: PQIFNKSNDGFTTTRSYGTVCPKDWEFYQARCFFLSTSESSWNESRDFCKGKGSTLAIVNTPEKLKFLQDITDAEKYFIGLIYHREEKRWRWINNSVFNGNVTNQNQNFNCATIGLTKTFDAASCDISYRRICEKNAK
Description: Protein antigen was aspirated, and wells were washed 3 times with 400 μL of wash buffer (0.05% Tween® 20 in PBS) using a plate washer. Anti-CLEC5A antibodies were prepared as the primary antibody at 5 μg/mL and serially diluted 3-fold through 11 points (diluted concentrations) with reagent buffer (PBS+0.05% BSA). 100 μL of primary antibody was added to appropriate wells and incubated for 1 hour at room temperature. Primary antibody was aspirated, and wells were washed 3 times with 400 μL of wash buffer (0.05% Tween® 20 in PBS) using a plate washer. […] Secondary antibody was aspirated, and wells were washed 3 times with 400 μL of wash buffer (0.05% Tween® 20 in PBS) using a plate washer. […] 100 μL of Fisher 1N Sulfuric Acid (Cat #: SA212-2) stop solution was added to each well and the plate was read in a plate reader at 450 nm. For analysis, OD450 of each antibody was plotted using GraphPad Prism software (Version 9.4.1; GraphPad Software Inc.).

[2] = biological target: T2, CD79b on Ramos cells and on endogenous B cells of human PBMCs (human, UniProt P40259 29-229); assay: cell-based or functional assay
T2 sequence (looked up): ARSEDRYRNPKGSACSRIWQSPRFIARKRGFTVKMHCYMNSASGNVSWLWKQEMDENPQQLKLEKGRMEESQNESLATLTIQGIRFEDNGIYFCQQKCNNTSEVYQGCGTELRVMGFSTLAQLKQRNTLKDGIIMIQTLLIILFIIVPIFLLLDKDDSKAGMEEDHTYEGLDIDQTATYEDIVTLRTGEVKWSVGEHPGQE

[3] = biological target: T2, CD79b on Ramos cells and on endogenous …; assay: cell-based or functional assay; remark: listed apart in the source
[4] = biological target: T2, CD79b on Ramos cells and on endogenous …; assay: cell-based or functional assay; remark: listed apart in the source
[5] = biological target: T2, CD79b on Ramos cells and on endogenous …; assay: cell-based or functional assay; remark: listed apart in the source

EC50 [1]: 0.47 nM
B1: h3A7, humanized anti-CLEC5A antibody (antibody, V domains shown)
VH: EQQLLESGGGLVQPGGSLRLSCAASGFSFSGMYWICWVRQAPGKGLEWIACIYTGSSTTGYASWAKGRFTISKDSSKNTVYLQMNSLRAEDTAVYFCASPYGDSSHYRGLNLWGPGTLVTVSS
VL: DVQMTQSPSSLSASVGDRVTITCQASQRINNYLSWFQQKPGKPPKLLIYGAATLASGVPSRFSGSGSGTDYTLTISSLQPEDVATYYCQCTYGIPSSNYGFGGGTKVEIK
notes: also called humanized 3A7

EC50 [1]: 0.12 nM
B2: h13E6, humanized anti-CLEC5A antibody (antibody, V domains shown)
VH: EQQLLESGGGLVQPGGSLRLSCAASGFSFSSSYWLCWVRQAPGKGLEWIACIYGGSSRGTYYASWAKGRFTISKDSSKNTVYLQMNSLRAEDTAVYFCASHTYTYPRFSPYFNLWGPGTLVTVSS
VL: EFVMTQSPATLSVSPGERATLSCQASEDIESSLAWYQQKPGQPPRLLIYDASDLESGVPARFSGSGSGTEYTLTISSLQSEDFAVYFCQSAYYTGSADNTFGGGTKVEIK
notes: also called humanized 13E6

B3: CD79b/5C7 (2+2 A) Fc-silenced (bispecific antibody, human IgG1, kappa, L234A L235A)
heavy: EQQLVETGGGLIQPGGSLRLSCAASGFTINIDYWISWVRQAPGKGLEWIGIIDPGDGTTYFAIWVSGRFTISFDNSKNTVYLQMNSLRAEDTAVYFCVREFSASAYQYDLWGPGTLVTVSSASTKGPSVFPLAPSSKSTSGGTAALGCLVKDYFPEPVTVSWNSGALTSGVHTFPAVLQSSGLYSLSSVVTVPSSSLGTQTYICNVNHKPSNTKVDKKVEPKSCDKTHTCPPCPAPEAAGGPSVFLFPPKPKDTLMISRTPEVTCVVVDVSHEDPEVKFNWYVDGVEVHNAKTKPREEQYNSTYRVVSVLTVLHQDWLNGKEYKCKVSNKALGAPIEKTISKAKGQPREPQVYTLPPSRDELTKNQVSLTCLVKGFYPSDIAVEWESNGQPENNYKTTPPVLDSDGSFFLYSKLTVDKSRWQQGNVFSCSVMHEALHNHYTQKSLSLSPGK
light: ELVMTQSPATLSVSPGERATLSCRASEDIENYLAWYQQKPGQPPRLLIYRASTLSSGVPARFSGSGSGTEFTLTISSLQSEDFAVYYCQQGYRNSNVDNPFGGGTKVEIKRTVAAPSVFIFPPSDEQLKSGTASVVCLLNNFYPREAKVQWKVDNALQSGNSQESVTEQDSKDSTYSLSSTLTLSKADYEKHKVYACEVTHQGLSSPVTKSFNRGECGGGGSGGGGSGGGGSDIQMTQSPSSLSASVGDRVTITCQASESVDRNNRLAWFQQKPGKPPKLLIYTTSTLASGVPSRFSGSGSGTDFTLTISSLQPEDVATYYCAGYRGAHTDGDAFGGGTKVEIKGGGGSGGGGSGGGGSGGGGSEQQLVESGGGLVKPGGSLRLSCAASGFSFSRSSYMCWVRQAPGKGLEWIGCLSVGDGHTYYASWAKGRFTISKDSAKNSVYLQMNSLRAEDTAVYFCARAPSYSGDGGHGYDLWGPGTLVTVSS
IC50 (nM), Ramos cell killing by M0 macrophages, Donor 159 [2]: 0.002 nM
IC50 (nM), Ramos cell killing by M0 macrophages, Donor 161 [2]: 0.0006 nM

EC50 [1]: 0.44 nM
B4: h5C7, humanized anti-CLEC5A antibody (antibody, V domains shown)
VH: EQQLVESGGGLVKPGGSLRLSCAASGFSFSRSSYMCWVRQAPGKCLEWIGCLSVGDGHTYYASWAKGRFTISKDSAKNSVYLQMNSLRAEDTAVYFCARAPSYSGDGGHGYDLWGPGTLVTVSS
VL: DIQMTQSPSSLSASVGDRVTITCQASESVDRNNRLAWFQQKPGKPPKLLIYTTSTLASGVPSRFSGSGSGTDFTLTISSLQPEDVATYYCAGYRGAHTDGDAFGCGTKVEIK
notes: also called humanized 5C7

EC50 [1]: 0.22 nM
B5: h7G10, humanized anti-CLEC5A antibody (antibody, V domains shown)
VH: EQQLVESGGGVVQPGRSLRLSCAASGFSFSSGYDMCWVRQAPGKGLEWIACIYGGRSDNVYYARWAKGRFTISKDSSTNTVFLQMNSLRAEDTAVYFCARDYLYRGYIGGGYGRSNLWGPGTLVTVSS
VL: DVQMTQSPSSVSASVGDRVTITCRASEDIENCLAWYQQKPGKPPKLLIYQASKLPSGVPSRFSGSGSGTDYTLTISSLQPEDFATYYCQNPDYMRNTDNLFGGGTKVEIK
notes: also called humanized 7G10

EC50 [1]: 0.33 nM
B6: h6A5, humanized anti-CLEC5A antibody (antibody, V domains shown)
VH: EQQLVESGGGLVQPGGSLRLSCSASGFSFSSSYYMCWVRQAPGKGLELIACIYSSSGRTWYATWVNGRFTISRDTSKNTVYLQMNSLRAEDTAVYFCARSYAGYGGYGYAYFNLWGPGTLVTVSS
VL: EIVMTQSPATLSVSPGERATLSCQASEDIYSSLAWYQQKPGQRPRLLIYDASTLASGVPARFSGSGSGTEYTLTISSLQSEDFAVYYCQNYYDSTGSGYGAAFGGGTKVEIK
notes: also called humanized 6A5

B7: CD79b/5C7 (2+1 A) Fc-optimized (bispecific antibody, human IgG1, kappa)
heavy 1: EQQLVETGGGLIQPGGSLRLSCAASGFTINIDYWISWVRQAPGKGLEWIGIIDPGDGTTYFAIWVSGRFTISFDNSKNTVYLQMNSLRAEDTAVYFCVREFSASAYQYDLWGPGTLVTVSSASTKGPSVFPLAPSSKSTSGGTAALGCLVKDYFPEPVTVSWNSGALTSGVHTFPAVLQSSGLYSLSSVVTVPSSSLGTQTYICNVNHKPSNTKVDKKVEPKSCDGGGGSGGGGSGGGGSEQQLVETGGGLIQPGGSLRLSCAASGFTINIDYWISWVRQAPGKGLEWIGIIDPGDGTTYFAIWVSGRFTISFDNSKNTVYLQMNSLRAEDTAVYFCVREFSASAYQYDLWGPGTLVTVSSASTKGPSVFPLAPSSKSTSGGTAALGCLVKDYFPEPVTVSWNSGALTSGVHTFPAVLQSSGLYSLSSVVTVPSSSLGTQTYICNVNHKPSNTKVDKKVEPKSCDKTHTCPPCPAPELLAGPSVFLFPPKPKDTLMISRTPEVTCVVVDVSHEDPEVKFNWYVDGVEVHNAKTKPREEQYNSTYRVVSVLTVLHQDWLNGKEYKCKVSNKALPLPEEKTISKAKGQPREPQVYTLPPSRDELTKNQVSLSCAVKGFYPSDIAVEWESNGQPENNYKTTPPVLDSDGSFFLVSKLTVDKSRWQQGNVFSCSVMHEALHNHYTQKSLSLSPGK
heavy 2: DIQMTQSPSSLSASVGDRVTITCQASESVDRNNRLAWFQQKPGKPPKLLIYTTSTLASGVPSRFSGSGSGTDFTLTISSLQPEDVATYYCAGYRGAHTDGDAFGGGTKVEIKGGGGSGGGGSGGGGSGGGGSEQQLVESGGGLVKPGGSLRLSCAASGFSFSRSSYMCWVRQAPGKGLEWIGCLSVGDGHTYYASWAKGRFTISKDSAKNSVYLQMNSLRAEDTAVYFCARAPSYSGDGGHGYDLWGPGTLVTVSSDKTHTCPPCPAPELLAGPSVFLFPPKPKDTLMISRTPEVTCVVVDVSHEDPEVKFNWYVDGVEVHNAKTKPREEQYNSTYRVVSVLTVLHQDWLNGKEYKCKVSNKALPLPEEKTISKAKGQPREPQVYTLPPSRDELTKNQVSLWCLVKGFYPSDIAVEWESNGQPENNYKTTPPVLDSDGSFFLYSKLTVDKSRWQQGNVFSCSVMHEALHNHYTQKSLSLSPGK
light: ELVMTQSPATLSVSPGERATLSCRASEDIENYLAWYQQKPGQPPRLLIYRASTLSSGVPARFSGSGSGTEFTLTISSLQSEDFAVYYCQQGYRNSNVDNPFGGGTKVEIKRTVAAPSVFIFPPSDEQLKSGTASVVCLLNNFYPREAKVQWKVDNALQSGNSQESVTEQDSKDSTYSLSSTLTLSKADYEKHKVYACEVTHQGLSSPVTKSFNRGEC
IC50 (nM), Ramos cell killing by M0 macrophages, Donor 022 [2]: 0.002 nM
IC50 (nM), Ramos cell killing by PBMCs (test 2), Donor 234 [3]: 0.00472 nM
IC50 (nM), killing of endogenous B cells by PBMCs, Donor 234 [4]: 0.0178 nM
IC50 (nM), Ramos cell killing by M2 macrophages, Donor 022 [5]: 0.002 nM

B8: CD79b/5C7 (1+1 A) Fc-optimized (bispecific antibody, human IgG1, kappa)
heavy 1: EQQLVETGGGLIQPGGSLRLSCAASGFTINIDYWISWVRQAPGKGLEWIGIIDPGDGTTYFAIWVSGRFTISFDNSKNTVYLQMNSLRAEDTAVYFCVREFSASAYQYDLWGPGTLVTVSSASTKGPSVFPLAPSSKSTSGGTAALGCLVKDYFPEPVTVSWNSGALTSGVHTFPAVLQSSGLYSLSSVVTVPSSSLGTQTYICNVNHKPSNTKVDKKVEPKSCDKTHTCPPCPAPELLAGPSVFLFPPKPKDTLMISRTPEVTCVVVDVSHEDPEVKFNWYVDGVEVHNAKTKPREEQYNSTYRVVSVLTVLHQDWLNGKEYKCKVSNKALPLPEEKTISKAKGQPREPQVYTLPPSRDELTKNQVSLSCAVKGFYPSDIAVEWESNGQPENNYKTTPPVLDSDGSFFLVSKLTVDKSRWQQGNVFSCSVMHEALHNHYTQKSLSLSPGK
heavy 2: EQQLVESGGGLVKPGGSLRLSCAASGFSFSRSSYMCWVRQAPGKGLEWIGCLSVGDGHTYYASWAKGRFTISKDSAKNSVYLQMNSLRAEDTAVYFCARAPSYSGDGGHGYDLWGPGTLVTVSSASTKGPSVFPLAPSSKSTSGGTAALGCLVKDYFPEPVTVSWNSGALTSGVHTFPAVLQSSGLYSLSSVVTVPSSSLGTQTYICNVNHKPSNTKVDKKVEPKSCDKTHTCPPCPAPELLAGPSVFLFPPKPKDTLMISRTPEVTCVVVDVSHEDPEVKFNWYVDGVEVHNAKTKPREEQYNSTYRVVSVLTVLHQDWLNGKEYKCKVSNKALPLPEEKTISKAKGQPREPQVYTLPPSRDELTKNQVSLWCLVKGFYPSDIAVEWESNGQPENNYKTTPPVLDSDGSFFLYSKLTVDKSRWQQGNVFSCSVMHEALHNHYTQKSLSLSPGK
light 1: B7 light
light 2: DIQMTQSPSSLSASVGDRVTITCQASESVDRNNRLAWFQQKPGKPPKLLIYTTSTLASGVPSRFSGSGSGTDFTLTISSLQPEDVATYYCAGYRGAHTDGDAFGGGTKVEIKRTVAAPSVFIFPPSDEQLKSGTASVVCLLNNFYPREAKVQWKVDNALQSGNSQESVTEQDSKDSTYSLSSTLTLSKADYEKHKVYACEVTHQGLSSPVTKSFNRGEC
IC50 (nM), Ramos cell killing by PBMCs (test 2), Donor 234 [3]: 0.338 nM
